Data taken from publication PMC7134607 (Biochemical and Biophysical Research Communications, 2004).

Biological target: the molecule itself
Assay: enzyme activity versus enzyme concentration

B1: SARS main protease (enzyme)
chain: SGFRKMAFPSGKVEGCMVQVTCGTTTLNGLWLDDTVYCPRHVICTAEDMLNPNYEDLLIRKSNHSFLVQAGNVQLRVIGHSMQNCLLRLKVDTSNPKTPKYKFVRIQPGQTFSVLACYNGSPSGVYQCAMRPNHTIKGSFLNGSCGSVGFNIDYDCVSFCYMHHMELPTGVHAGTDLEGKFYGPFVDRQTAQAAGTDTTITLNVLAWLYAAVINGDRWFLNRFTTTLNDFNLVAMKYNYEPLTQDHVDILGPLSAQTGIAVLDMCAALKELLQNGMNGRTILGSTILEDEFTPFDVVRQCSGVTFQ
With B1 the Kd was 15 ± 4 nM.
